Source: the supplement of paper PMC7877785
± gives the uncertainty stated by the source.

Test: self-splicing fitness, log relative to wild type (ln ratio); higher = more splicing; Tetrahymena group I intron in knt gene, E. coli kanamycin selection, DiMSum; sequences stand for … in CUCUCU…GGAGGGAAAAGUUAUCAGGCAUGCACCUGGUAGCUAGUCUUUAAACCAAUAGAUUGCAUCGGUUUAAAAGGCAAGACCGUCAAAUUGCGGGAAAGGGGUCAACAGCCGUUCAGUACCAAGUCUCAGGGGAAACUUUGAGAUGGCCUUGCAAAGGGUAUGGUAAUAAGCUGACGGACAUGGUCCUAACCACGCAGCCAAGUCCUAAGUCAACAGAUCUUCUGUUGAUAUGGAUGCAGUUCACAGACUAAAUGUCGGUCGGGGAAGAUGUAUUCUUCUCAUAAGAUAUAGUCGGACCUCUCCUUAAUGGGAGCUAGCGGAUGAAGUGAUGCAACACUGGAGCCGCUGGGAACUAAUUUGUAUGCGAAAGUAUAUUGAUUAGUUUUGGAGUACUCGUGGUCG
How it was run: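 Library with all eight P1ex-region intron nucleotides randomised, intron inside the knt kanamycin-resistance gene on pET-22b(+), in E. coli BL21(DE3). Cells grew overnight at 37°C or 30°C on LB agar with or without 25 μg/mL kanamycin (plus 100 μg/mL carbenicillin, 50 μM IPTG, 0.2% rhamnose), in six replicate transformations. Pooled colonies were amplicon-sequenced on Illumina HiSeq 2500. DiMSum fitness is the error-weighted combination of wild-type-normalised replicate fold changes, kanamycin versus none.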

| Sequence | self-splicing fitness (ln) (30 °C) | self-splicing fitness (ln) (37 °C) |
| --- | --- | --- |
| AGUGAGCAAUAUUACGCGCC | -2.21 ± 0.23 | – |
| CCUAAGCAAUAUUACGCUCU | -2.4 ± 0.14 | -2.94 ± 0.3 |
| UUGAAGCAAUAUUACGAUGG | -0.452 ± 0.07 | 0.232 ± 0.1 |
| CCGCAGCAAUAUUACGCCGA | -2.35 ± 0.19 | -1.42 ± 0.14 |
| UACUAGCAAUAUUACGGUAU | -2.78 ± 0.33 | -2.63 ± 0.36 |
| GUUGAGCAAUAUUACGUGGG | -3.09 ± 0.23 | -1.97 ± 0.18 |
| CCAAAGCAAUAUUACGCGAA | -2.8 ± 0.44 | -2.5 ± 0.28 |
| GGGGAGCAAUAUUACGUUCC | – | -2 ± 0.3 |
| GCUCAGCAAUAUUACGAGCU | -1.77 ± 0.2 | -2.27 ± 0.35 |
| GUGCAGCAAUAUUACGACAA | -0.582 ± 0.066 | -0.153 ± 0.07 |
| CGCUAGCAAUAUUACGAGCA | -0.28 ± 0.098 | 0.344 ± 0.12 |
| GAUAAGCAAUAUUACGAAAC | -2.38 ± 0.2 | -0.746 ± 0.19 |
| CGGAAGCAAUAUUACGUGAC | -1.6 ± 0.16 | -2.12 ± 0.35 |
| AUCAAGCAAUAUUACGCGUC | -3.45 ± 0.23 | -1.41 ± 0.16 |
| UUAAAGCAAUAUUACGUGGC | -3.08 ± 0.15 | -2.98 ± 0.3 |
| UGUUAGCAAUAUUACGGCAA | -0.875 ± 0.15 | -0.17 ± 0.14 |
| UUCAAGCAAUAUUACGUCUC | -3.33 ± 0.26 | -1.74 ± 0.18 |
| CCAAAGCAAUAUUACGAACG | 0.08 ± 0.054 | -0.168 ± 0.071 |
| CGUAAGCAAUAUUACGUAAU | -3.23 ± 0.16 | -2.64 ± 0.18 |
| AAACAGCAAUAUUACGUACC | -1.52 ± 0.11 | -0.543 ± 0.12 |
| UUAAAGCAAUAUUACGCCAA | 0.638 ± 0.29 | -0.283 ± 0.39 |
| ACCAAGCAAUAUUACGUCUG | -2.55 ± 0.1 | -1.02 ± 0.1 |
| CGGUAGCAAUAUUACGGGGC | – | -2.39 ± 0.34 |
| CUACAGCAAUAUUACGUUAA | -3.48 ± 0.21 | -2.94 ± 0.2 |
| GCCUAGCAAUAUUACGAGAG | -3.76 ± 0.32 | -1.44 ± 0.12 |

| Sequence | self-splicing fitness (ln) (30 °C) | self-splicing fitness (ln) (37 °C) |
| --- | --- | --- |
| GACGAGCAAUAUUACGUACA | -3.04 ± 0.27 | -2.26 ± 0.2 |
| UAUAAGCAAUAUUACGACAU | -1.09 ± 0.014 | -0.413 ± 0.033 |
| UCAAAGCAAUAUUACGACAC | -3.05 ± 0.48 | -1.97 ± 0.43 |
| UCAUAGCAAUAUUACGCCGU | -3.49 ± 0.34 | -1.85 ± 0.39 |
| UUCCAGCAAUAUUACGACCA | -0.177 ± 0.26 | -0.862 ± 0.23 |
| UUCCAGCAAUAUUACGUUGA | -1.63 ± 0.078 | -1.17 ± 0.092 |
| CGCAAGCAAUAUUACGCUUC | -3.18 ± 0.3 | – |
| AUUUAGCAAUAUUACGCGUA | -1.36 ± 0.12 | -1 ± 0.14 |
| UACUAGCAAUAUUACGGAUG | -0.926 ± 0.077 | -0.112 ± 0.11 |
| GAGGAGCAAUAUUACGGACA | -3.15 ± 0.33 | -1.96 ± 0.3 |
| UUCCAGCAAUAUUACGUGUU | -4.2 ± 0.25 | -2.48 ± 0.21 |
| CAGCAGCAAUAUUACGUACC | -3.85 ± 0.16 | -2.46 ± 0.16 |
| UCCUAGCAAUAUUACGCAUA | -2.82 ± 0.3 | -2.11 ± 0.2 |
| CCAUAGCAAUAUUACGUCUC | -4.6 ± 0.28 | -3.05 ± 0.22 |
| UUCAAGCAAUAUUACGGGUG | -0.476 ± 0.045 | -0.593 ± 0.06 |
| GAAUAGCAAUAUUACGCUAC | -1.75 ± 0.48 | – |
| CGACAGCAAUAUUACGAAUU | -3.51 ± 0.19 | -2.04 ± 0.18 |
| ACCAAGCAAUAUUACGGCAU | -0.931 ± 0.049 | -0.0435 ± 0.066 |
| CUGAAGCAAUAUUACGAGAU | -2.63 ± 0.15 | -1.57 ± 0.15 |
| UCGCAGCAAUAUUACGCGGC | – | -1.94 ± 0.26 |
| AAGCAGCAAUAUUACGGUUA | -0.142 ± 0.072 | 0.0491 ± 0.087 |
| GGUUAGCAAUAUUACGGCUG | -0.585 ± 0.16 | 0.214 ± 0.28 |
| GAGCAGCAAUAUUACGUGGA | -3.09 ± 0.22 | -1.69 ± 0.15 |
| AUAGAGCAAUAUUACGACUG | -2.11 ± 0.13 | -0.786 ± 0.18 |
